Test results taken from patent publication US20250289873A1 (BROADWING BIO, published 2025).

Assays:
[1] = biological target: T1, human CFHL3-His (ATX-P-58) (human, UniProt Q02985 19-330); test: Carterra LSA biosensor, mAb printed on chip, cutoff set by isotype control
T1 construct: also called human CFHR3 protein; CFHR3; not shown: C-terminal His tag (and linker)
T1 sequence (looked up): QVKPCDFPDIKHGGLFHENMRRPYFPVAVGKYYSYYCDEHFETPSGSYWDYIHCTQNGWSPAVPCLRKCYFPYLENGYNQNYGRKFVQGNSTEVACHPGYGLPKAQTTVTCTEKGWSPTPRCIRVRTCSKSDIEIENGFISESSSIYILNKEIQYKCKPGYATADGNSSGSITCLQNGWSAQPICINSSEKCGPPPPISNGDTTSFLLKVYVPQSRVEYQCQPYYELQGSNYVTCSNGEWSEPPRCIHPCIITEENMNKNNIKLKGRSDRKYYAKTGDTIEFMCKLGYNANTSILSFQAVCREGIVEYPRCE
Procedure: (§1) Experiments were also conducted to determine the reactivity of the CFHR4 antibodies with the human CFHR3 protein (FIG. 9). The binding experiments were performed on Carterra LSA with a running buffer of PBS pH 7.40, 1% BSA, 0.05% Tween20. Antibodies were covalently printed on an HC30M chip. Chip was activated with 33 mM s-NHS and 133 mM EDC in 100 mM MES pH 5.5 for 7 minutes. Antibodies at 10 mg/ml in acetic acid buffer pH 4.5 were used for printing for 10 min. The printed chip was then quenched with 1 M ethanolamine pH 8.5 for 7 min. For the reactivity assay, ATX-P-58, human CFHL3-His, at 550 nM was tested with 5 min association followed by 15 min dissociation. Results were processed and analyzed in Carterra LSA Kinetics Software. The data was referenced with the interstitial reference spots and double-referenced to a buffer cycle, and then the responses (nm) after association were reported. Isotype control was used to determine the cutoff response for positive binding.
as §1, with “CFHL-1 (Y402H)” for “CFHR3”, “10).” for “9).”, “ATX-P-421,” for “ATX-P-58,”, “CFHL1-Y402H-His,” for “CFHL3-His,”, “380” for “550”

[2] = biological target: T2, Human CFHL1-Y402H-His (ATX-P-421) (human); test: Carterra LSA biosensor, mAb printed on chip, human CFHL1-Y402H-His at 380 nM
T2 construct: also called human CFHL-1 (Y402H) protein
T2 chain: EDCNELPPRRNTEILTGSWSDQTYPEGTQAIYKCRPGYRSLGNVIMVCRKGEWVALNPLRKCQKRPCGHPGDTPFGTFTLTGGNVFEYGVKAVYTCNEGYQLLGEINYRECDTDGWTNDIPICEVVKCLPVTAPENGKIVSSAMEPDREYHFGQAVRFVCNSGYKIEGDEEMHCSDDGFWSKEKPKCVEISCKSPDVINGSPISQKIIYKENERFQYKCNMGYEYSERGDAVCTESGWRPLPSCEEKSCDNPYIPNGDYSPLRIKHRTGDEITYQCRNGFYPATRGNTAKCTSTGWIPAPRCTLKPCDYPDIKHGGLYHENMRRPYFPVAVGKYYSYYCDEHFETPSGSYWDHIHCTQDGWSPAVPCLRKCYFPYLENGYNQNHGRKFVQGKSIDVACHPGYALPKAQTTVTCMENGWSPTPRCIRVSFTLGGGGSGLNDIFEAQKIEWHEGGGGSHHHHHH
Procedure: as §1, with “CFHL-1 (Y402H)” for “CFHR3”, “10).” for “9).”, “ATX-P-421,” for “ATX-P-58,”, “CFHL1-Y402H-His,” for “CFHL3-His,”, “380” for “550”

[3] = biological target: T2, Human CFHL1-Y402H-His (ATX-P-421); test: Carterra LSA biosensor, mAb printed on chip, cutoff set by isotype control
Procedure: as §1
as §1, with “CFHL-1 (Y402H)” for “CFHR3”, “10).” for “9).”, “ATX-P-421,” for “ATX-P-58,”, “CFHL1-Y402H-His,” for “CFHL3-His,”, “380” for “550”

B1: ATX-P-591 (antibody, V domains shown)
VH: QVQLVQSGAEVKKPGASVKVSCKASGYTFTSYGISWVRQAPGQGLEWMGWISAYNGNTNYAQKLQGRVTMTTDTSTSTAYMELRSLRSDDTAIYYCTRDLRGTAFDYWGQGTPVTVSS
VL: DIQMTQSPSSLSASVGDRVTITCRASQSINTYLNWYQQKPGKAPKLLIYAASSLQSGVPSRFSGSGSGTDFTLTISSLQPEDFATYSCQHSFTTPFTFGPGTKLEIKR
B1: no binding (tested: 550 nM) [1]; binds [2].

B2: ATX-P-607 (antibody, human IgG1, kappa, N297A, V domains shown)
VH: QVQLVQSGAEVKKPGASVKVSCKASGYTFTSYYMHWVRQAPGQGLEWMGIINPSGGSTSYAQKFQGRVTMTRDTSTNTVYMELSSLRSEDTAVYYCARDPEYSSAFDIWGQGTMVTVSS
VL: DIQMTQSPSSLSASVGDRGTITCRASQSIRSYLNWYQQKPGKAPKLLIYAASSLQSGVPSRFSGSGSGTDFTLTISSLQPEDFATYYCQQSYRTPVTFGPGTKVDIKR
B2: no binding (tested: 550 nM) [1]; no binding (tested: 380 nM) [3].

B3: ATX-P-598 (antibody, human IgG1, kappa, N297A, V domains shown)
VH: QVQLQESGPGLVKPSGTLSLTCAVSGGSISSSNWWSWVRQSPGKGLEWIGEIYHSGTTNYNPSLKSRVTISVDKSKNQFSLKLSSATAADTAVYYCARDRLRLGESSSDVFDIWGQGTMVTVSS
VL: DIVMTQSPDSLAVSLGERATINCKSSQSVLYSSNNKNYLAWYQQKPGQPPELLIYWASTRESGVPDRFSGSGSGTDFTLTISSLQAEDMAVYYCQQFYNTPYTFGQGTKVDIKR
B3: no binding (tested: 550 nM) [1]; no binding (tested: 380 nM) [3].

B4: ATX-P-602 (antibody, human IgG1, kappa, N297A, V domains shown)
VH: not shown
VL: EIVLTQSPGTLSLSPGERATLSCRASQSVSSSYLAWYQQKPGQAPRLLIYGASSRATGIPDRFSGSGSGTQFTLTISSLQSEDFAVYYCQQYGSSPWTFGQGTKVDIKR
B4: no binding (tested: 550 nM) [1]; no binding (tested: 380 nM) [3].

B5: ATX-P-560 (antibody, human IgG1, kappa, N297A, V domains shown)
VH: QVQLQQSGPGLVKPSQTLSLTCAISGDSVSSNTAAWNWIRQSPSRGLEWLGRTYYRSKWYNDYAVSVKSRITINPDTSKNQFSLQLSSVTPQDTAIYYCASDNWNNGGPGFDPWGQGTLVTVSS
VL: DIQMTQSPSSVSTSVGDRVTITCRASQGISSWLAWYQQKPGKAPKLLISAASSLQSGVPSRFSGSGSGTDFTLTISTLQPEDFASYYCQQANSFPPTFGQGTRVEIKR
B5: no binding (tested: 550 nM) [1]; no binding (tested: 380 nM) [3].

B6: ATX-P-601 (antibody, human IgG1, kappa, N297A, V domains shown)
VH: QVQLVQSGAEVKKPGASVKVSCKASGYTFTSYYMHWVRQAPGQGLEWMGIINPSGGSTNYAQKFQGRLTMTRDTSTNTVYMELSSLRSEDTAVYYCATDQSGGMDVWGKGTTVTVSS
VL: DIQMTQSPSSLSASVGDRVTITCRASQSINIYLNWYQQKPEKDPKLLIYAASSLQSGVPSRFSGSGSGTDFTLTISNLQPEDFATYYCQQSYSTPITFGQGTRLEIKR
B6: no binding (tested: 550 nM) [1]; no binding (tested: 380 nM) [3].

B7: ATX-P-597 (antibody, human IgG1, kappa, N297A, V domains shown)
VH: QVQLVQSGAEVKKPGASVKVSCKASGYTFTNYYMQWVRQAPGQGLEWLGIIDPSGGSTTYAQKFQGRVTMTRDTSTSTVHMELRSLRSEDTAVYYCARDEGTDRPGWGYWGQGTLVTVSS
VL: DIQMTQSPSSLSASIGDRVTITCRASQSISSYLDWYQRKSGKAPKLLIYAASSLQSGVPSRFSGSGSGTDFTLTISSLQPEDFATYYCQQSYSTPLTFGGGTKVDIKR
B7: no binding (tested: 550 nM) [1]; no binding (tested: 380 nM) [3].
